The values below come from patent US20230057012A1, “TGFB INHIBITORS AND USE THEREOF” (Scholar Rock, Inc., priority 2020, published 2023).

The subject of data set [1] is Human. The following applies: in vivo; cited from earlier work.
Data set [2] has as its system non-diseased rat BAL. The data set can be described thus: TGFβ downstream tonic signaling in rat BAL. In kind it is in vivo. The text has this:
Indeed, data presented herein support this notion. […] Preferably, TGFβ antagonists for use in the treatment of such conditions exert their inhibitory activities only towards the disease-induced or disease-associated isoform, while preserving the function of the other isoforms that are normally expressed to mediate tonic signaling in the tissue. […] Alternatively or additionally, agents that target and block integrin-dependent activation of TGFβ may be capable of blocking only a subset of integrins responsible for disease-associated TGFβ1 activation, among numerous integrin types that are expressed by various cell types and play a role in the pathogenesis. Furthermore, even where such antagonists may selectively block integrin-mediated activation of the TGFβ1 isoform, it may be ineffective in blocking TGFβ1 activation triggered by other modes, such as protease-dependent activation. By contrast, the isoform-specific, inhibitors of TGFβ1 such as those described herein are aimed to prevent the activation step of TGFβ1 regardless of the particular mode of activation, while maintaining isoform selectivity. Preferably, the isoform-selective activation inhibitor of TGFβ1 is Ab46 or an engineered molecule comprising an antigen-binding fragment thereof.

Data set [3] has as its system Female Fischer344 rats or Sprague Dawley (SD) rats. The conditions noted are these: rat, in vivo. As to the method: Animals receiving LY2109761 were dosed by oral gavage once daily for five or seven days. Animals were sacrificed and necropsies performed.

In the case of “GC1008: human analog of 1D11, pan-TGFβ antibody”, in data set [1], the Half-life result was “Half-life: 21.7 d”; the “previously reported adverse events in human patients” value is “leukocytosis (grade 3), fatigue (grade 3), hypoxia (grade 3), asystole (grade 5), leukopenia (grade 1), recurrent, transient, tender erythematous, nodular skin lesions, suppurative dermatitis, and herpes zoster”.
As to `c1ccc(-c2nn3c(c2-c2ccnc4cc(OCCN5CCOCC5)ccc24)CCC3)nc1` [LY2109761], in data set [2], the “TGFβ downstream tonic signaling” value is reported as “inhibit TGFβ downstream tonic signaling”. Besides, the bone findings entry in data set [3] was “macroscopic abnormally shaped sternum and microscopic increased thickness of the hypertrophic zone in the endplate of the sternum and physis of the femur and tibia”.
